In the assay the target is Bio-SAP97 (SAP97 with N-terminal tag for in vivo biotinylation) (UniProt Q62696). Put plainly: pull-down; streptavidin-sepharose pull-down of biotin-tagged SAP97 or PSD-95 from Triton X-100 extracts (TNE buffer, pH 7.5, 120 mM NaCl, 4°C) of co-transfected HEK293 or HEK293T cells; western blot. (In western blotting, separated proteins are transferred to a membrane and probed.)
Chain of UniProt Q62696 (Q62696 whole entry): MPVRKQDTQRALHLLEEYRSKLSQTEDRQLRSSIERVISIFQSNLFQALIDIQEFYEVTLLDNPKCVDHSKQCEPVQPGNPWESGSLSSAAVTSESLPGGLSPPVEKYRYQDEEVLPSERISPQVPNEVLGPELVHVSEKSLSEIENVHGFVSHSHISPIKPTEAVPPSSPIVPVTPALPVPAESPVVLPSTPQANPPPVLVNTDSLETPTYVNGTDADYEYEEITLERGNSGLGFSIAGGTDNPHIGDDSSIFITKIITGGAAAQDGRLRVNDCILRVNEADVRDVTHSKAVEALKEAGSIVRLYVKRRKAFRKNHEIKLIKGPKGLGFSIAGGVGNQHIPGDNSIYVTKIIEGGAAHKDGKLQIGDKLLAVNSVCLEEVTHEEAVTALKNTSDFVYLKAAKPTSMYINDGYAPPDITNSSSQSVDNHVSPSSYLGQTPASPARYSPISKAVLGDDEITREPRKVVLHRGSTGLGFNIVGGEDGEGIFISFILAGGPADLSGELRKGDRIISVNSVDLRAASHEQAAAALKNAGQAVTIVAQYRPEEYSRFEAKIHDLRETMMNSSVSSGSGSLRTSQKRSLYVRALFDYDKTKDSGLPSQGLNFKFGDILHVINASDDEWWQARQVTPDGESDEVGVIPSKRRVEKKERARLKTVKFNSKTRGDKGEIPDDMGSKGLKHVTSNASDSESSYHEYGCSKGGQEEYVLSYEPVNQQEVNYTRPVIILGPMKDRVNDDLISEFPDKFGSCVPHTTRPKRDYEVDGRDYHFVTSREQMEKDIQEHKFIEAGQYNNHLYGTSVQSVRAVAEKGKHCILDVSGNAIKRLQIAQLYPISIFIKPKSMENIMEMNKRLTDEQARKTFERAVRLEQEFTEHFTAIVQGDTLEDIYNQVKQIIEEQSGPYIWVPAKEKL

The substance “N-terminally GFP-tagged GluA1 C893S mutant (receptor)” returned a percent decrease in association against wt GluA1 of 60 to 70%.

The record behind these values is publication PMC5289633.
